Key:
Assay in all cases: cryo-EM structure
Conditions in all cases: both partners purified
[1] = target: T1, VEEV E2 envelope glycoprotein (strain TC83), in the VLP (Venezuelan equine encephalitis virus, …, strain)
T1 construct: also called E2 subunit
T1 chain 1: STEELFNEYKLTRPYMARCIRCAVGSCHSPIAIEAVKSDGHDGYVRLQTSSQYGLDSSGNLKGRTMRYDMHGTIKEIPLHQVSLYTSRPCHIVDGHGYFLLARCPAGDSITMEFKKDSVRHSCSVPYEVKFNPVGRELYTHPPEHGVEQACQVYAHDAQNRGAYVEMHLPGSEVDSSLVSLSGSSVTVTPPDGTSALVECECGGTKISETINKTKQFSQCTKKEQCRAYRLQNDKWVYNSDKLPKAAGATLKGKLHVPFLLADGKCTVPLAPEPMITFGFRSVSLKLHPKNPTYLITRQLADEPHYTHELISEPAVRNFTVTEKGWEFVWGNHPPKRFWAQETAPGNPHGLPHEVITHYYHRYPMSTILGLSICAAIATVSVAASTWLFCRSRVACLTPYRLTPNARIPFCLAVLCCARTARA
T1 chain 2: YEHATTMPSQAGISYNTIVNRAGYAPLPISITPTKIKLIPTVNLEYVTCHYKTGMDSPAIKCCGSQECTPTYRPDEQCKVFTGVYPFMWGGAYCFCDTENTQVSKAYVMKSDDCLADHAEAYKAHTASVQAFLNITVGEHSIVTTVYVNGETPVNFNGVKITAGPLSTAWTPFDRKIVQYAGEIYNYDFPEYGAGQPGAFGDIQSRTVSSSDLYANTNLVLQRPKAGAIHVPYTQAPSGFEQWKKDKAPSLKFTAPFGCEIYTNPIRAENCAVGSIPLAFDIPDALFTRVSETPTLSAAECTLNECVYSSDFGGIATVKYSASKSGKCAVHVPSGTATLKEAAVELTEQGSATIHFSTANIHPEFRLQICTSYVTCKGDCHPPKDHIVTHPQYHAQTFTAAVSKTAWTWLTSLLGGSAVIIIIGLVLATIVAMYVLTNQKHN

[2] = target: T2, VEEV E1 envelope glycoprotein (strain TC83), in the VLP (Venezuelan equine encephalitis virus, …)
T2 construct: also called E1 subunit
T2 chain 1: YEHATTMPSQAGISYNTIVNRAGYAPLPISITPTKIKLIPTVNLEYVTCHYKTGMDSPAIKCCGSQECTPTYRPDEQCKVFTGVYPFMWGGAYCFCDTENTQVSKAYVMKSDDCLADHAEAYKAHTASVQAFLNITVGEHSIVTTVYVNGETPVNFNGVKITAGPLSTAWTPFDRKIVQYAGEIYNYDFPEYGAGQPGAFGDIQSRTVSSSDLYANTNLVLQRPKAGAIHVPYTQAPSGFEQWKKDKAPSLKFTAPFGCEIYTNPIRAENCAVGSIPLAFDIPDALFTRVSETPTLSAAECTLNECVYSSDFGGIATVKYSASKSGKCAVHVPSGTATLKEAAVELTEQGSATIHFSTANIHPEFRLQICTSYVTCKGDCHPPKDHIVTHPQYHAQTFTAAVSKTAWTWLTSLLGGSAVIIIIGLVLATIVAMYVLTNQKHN
T2 chain 2: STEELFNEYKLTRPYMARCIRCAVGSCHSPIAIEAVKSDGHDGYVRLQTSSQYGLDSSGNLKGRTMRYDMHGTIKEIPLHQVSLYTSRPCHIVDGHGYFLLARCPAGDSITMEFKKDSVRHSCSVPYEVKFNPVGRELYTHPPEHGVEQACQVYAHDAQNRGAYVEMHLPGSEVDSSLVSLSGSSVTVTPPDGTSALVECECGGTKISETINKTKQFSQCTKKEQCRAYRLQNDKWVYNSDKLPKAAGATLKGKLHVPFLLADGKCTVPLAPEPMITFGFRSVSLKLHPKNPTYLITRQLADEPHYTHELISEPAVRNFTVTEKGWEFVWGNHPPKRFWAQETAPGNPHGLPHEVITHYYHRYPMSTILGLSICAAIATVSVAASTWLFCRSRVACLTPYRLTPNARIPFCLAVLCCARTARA

[3] = target: T3, VEEV virus-like particle (VLP), strain TC83 (subtype IAB) (Venezuelan equine encephalitis virus, …, strain)
T3 construct: also called VEEV VLP; VEEV IAB VLP
T3 chain 1: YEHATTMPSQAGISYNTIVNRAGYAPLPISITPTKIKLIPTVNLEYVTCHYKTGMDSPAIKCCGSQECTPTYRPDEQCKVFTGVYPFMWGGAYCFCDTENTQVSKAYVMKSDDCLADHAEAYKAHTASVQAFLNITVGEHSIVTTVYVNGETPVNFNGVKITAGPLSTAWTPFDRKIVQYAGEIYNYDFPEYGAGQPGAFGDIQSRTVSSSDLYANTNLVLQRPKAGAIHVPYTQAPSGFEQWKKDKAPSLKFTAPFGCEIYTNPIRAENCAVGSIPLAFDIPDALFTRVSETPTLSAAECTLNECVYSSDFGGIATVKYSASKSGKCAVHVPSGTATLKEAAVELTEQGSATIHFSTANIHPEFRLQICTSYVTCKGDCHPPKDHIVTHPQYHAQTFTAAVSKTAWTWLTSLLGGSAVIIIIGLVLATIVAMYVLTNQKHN
T3 chain 2: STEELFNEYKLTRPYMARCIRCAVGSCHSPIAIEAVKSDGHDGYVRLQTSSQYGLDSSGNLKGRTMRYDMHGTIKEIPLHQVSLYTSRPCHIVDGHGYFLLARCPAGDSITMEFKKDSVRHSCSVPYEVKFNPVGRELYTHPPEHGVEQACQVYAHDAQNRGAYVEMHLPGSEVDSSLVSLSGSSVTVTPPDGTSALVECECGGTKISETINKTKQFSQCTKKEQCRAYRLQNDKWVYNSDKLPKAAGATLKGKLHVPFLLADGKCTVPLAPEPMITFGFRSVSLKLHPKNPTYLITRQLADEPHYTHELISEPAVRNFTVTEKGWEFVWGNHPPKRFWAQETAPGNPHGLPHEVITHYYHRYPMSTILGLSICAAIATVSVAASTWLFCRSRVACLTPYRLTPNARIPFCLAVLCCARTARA

Measured: binding result

B1: sdAb V3A8f (VHH)
VHH: DVQLQASGGGSVQAGGSLRLSCAASGHSFANYHVAWIRQTPGKEREFVGSASRRDDSTYYADFALGRFIISRDNDINTAYLQMNSLKPEDSAVYYCVAAVMAQTTQGWTTDYDLRGQGTQVTVSS
binds: all assays above

B2: sdAb V2C3 (VHH)
VHH: DVQLQASGGGSVQAGGSLRLSCVASQNLFEYYTMGWYRQVPGSQRERVALINNGGSNVAGSVEGRFTISRDNAKNSIYLQMNNLKPEDSAVYYCRAFGPADYWGQGTQVTVSS
notes: source: ClearColi BL21(DE3), purified (Ni Sepharose, MEP HyperCel, SEC)
binds: all assays above

B3: sdAb V2B3 (VHH)
VHH: EVQLQASGGGLVQAGGSLRLSCAASGSIVSINVMAWYRQSPGKERELVAKSSGPFTLYADSVKGRFTISNDAAKNTVDLQMNSLKPEDTAVYYCNAEGLRYPSGTYGPSAVWGQGTQVTVSS
notes: as for B2
binds: all assays above
